Test: yeast display, Sf9 membrane polyspecificity reagent, FACS + sequencing; frameworks hold sequencing errors
Outline: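 Galactose-induced (36–48 hours) yeast carrying a synthetic nanobody display library were exposed to 10% biotinylated, detergent-solubilized Sf9 membrane reagent at 4 °C for 1 hour. FACS followed streptavidin microbead enrichment, using low and high (top ~1%) gates for expression (anti-HA) and reagent binding (streptavidin). Colony PCR, MiSeq 2 × 250 sequencing and CDR-length filtering followed. Labels for polyreactivity reflect the gate of origin.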

| Sequence | polyreactivity (PSR sort gate) |
| --- | --- |
| QVQLVESGGGLVQAGGSLRLSCAPSGNTFFLNAMGWYRQAPGKERELVAAITSSGGSTYYADSVKGRFTISRDNAKNTVYLQMNSLKPEDTAVYYCGTDRSYPPRSLNRRGPYEYWGQGTQVTVSS | low polyreactivity |
| QVQLVESGGGLVQAGGSLRLSCAASGITFWVYVKGWYRQAPGKEREFVADISSGAGTTYYADSVKGRFTISRDNAKNTVYLQMNSLKPEDTAVYYFAARRWWPQWYDYWGQGTQVTVSS | high polyreactivity |
| QVQLVESGGGLVQAGGSLRLSCAASGSIFGGNAMGWYRQAPGKERELVATIDFSGTSTYYADSVKGRFTISRDNAKITVYLQMNSLKPEDTAVYYCAVRSGYVNRRYDYWGQGTQVTVSS | low polyreactivity |
| QVQLVESGGGLVQAGGSLRLSCAASGITITTYAMGWYRQAPGKERELVAAISSASSTYYADSVKGRFTISRDNAKNTVYLQMNSLKPEDTAVYYCAARVFKKYRPSGRYYYWGQGTQVTVSS | high polyreactivity |
| QVQLVESGGGLVQAGGSLRLSCAASGLIFESYVMGWYRQAPGKERELVAAIRSSGGSTYYADSVKGRFTISRDNAKNTVYLQMNSLKPEVTAVYYCSVKGYGEYDYWGQGTQVTVSS | low polyreactivity |
| QVQLVESGGGLLQAGGSLRLSCAASGSTFHRNAMGWYRQAPGKERELVAAISWRAGSTYYADSVKGRFTISRDNAKNTVYLQMNSLKPEDTAVYYCNAVERYWDYGYWGQGTQVTVSS | low polyreactivity |
| QVQLVESGGGLVQAGGSLRLSCAASGSIFAKYAMGWYRQAPGKEREFVAAIRASGGRTYYADSVKGRFTISRDNAKNTVYLKMNSLKPEDTAFYYCASDVSYRAGFDYWGQGTQVTVSS | high polyreactivity |
| QVQLVESGGGLVQAGGSLRLSCAASGSTLQRYTMGLYRPAPGKERELDAAITQSGGSTFYADSVKGRFTISRDNAKNTVYLQMNSLKPEDTAVYYCAAKLTTGYYYGVPRDYWGQGTQVTVSS | high polyreactivity |
| QVQLVESGGGLVQAGGSLRLSCAASGYIFLFYGMGWYRPAPGKERELVAAITYGGGSTYYADSVKGRFTISRDNAKNTVYLQMNSLKPEDTAVYYCNAPSRLSTIFYSGYDYWGQGTQVTVSS | low polyreactivity |
| QVQLVESGGGLVQAGGSLRLSCAASGFIFSRNVMGWYRQAPGKDRELVAAISRSGGSTYYADSVKGRFTISRDNAKNTVYLQMNSLKPEDTAVYYCAAVRRVYSQNDYWGQGTQVTVSS | high polyreactivity |
| QVQLVESGGGLLQAGGSLRLSCAASGFTFRSYDMGWYRQAPGKERELVAAISWRGGRTYYADSVKGRFTISRDNAKNTVDLQMNSLKPEDTAVYYCATDWYWGSYAPYTTRAHFDYWGQGTQVTVSS | high polyreactivity |
| QVQRVESGGGLVQAGGSLRLSCAASGSTLRYYAMGWYRQAPGKERELVAGIRYRGGSTSYADSVKGRFTISRDNAKNTVYLQMNSLKPEDTAVYYCATGIYRARTSSFRMGYWGQGTQVTVSS | low polyreactivity |
| QVQLVESGGGLVQAGGSLRLSCAASGLIFLPYAMGWYRQAPGKERELVAAIRWSDDSTYYADSVKGRFTILRDNAKNTVYLQMNSLKPEDTAVYYCNAYVYRPSYIYNYYYEYDYWGQGTQVTVSS | high polyreactivity |
| QVQLVESGGGLVQAGGRLRLSCAASGSIFASYAMGWYRQAPGKERELVAAITSDGNTYYADSVKGRFTISRDNAKNTVYLPMNSLIPEDTAVYYCAADRYSTYPYAKGTEFYYWGQGTQVTVSS | low polyreactivity |
| QVQLVESGGGLVQAGGSLRLSCAASGNIFAWYAMGWYRQAPGKERELVADISSRGGSTYYADSVKGRFTISRDNAKNTVYLQMNSLKPEDTAVYYCAAVWYWTQDYDYWGRGTQVTVSS | low polyreactivity |
| QVQLVESGGGLVQAGGSLRLSCAASGSTFGANAKGWYRQAPGKARALVAAITWSGGSTYYADSVKGRFTISRDNAKNTVFLQMNSLKPEDTAVSYCNAVARWYVLQVYEYDYWGQGTQVTVSS | low polyreactivity |
| QVQLVESGGGLVQAGGSLRLSCAASGSIFYNYAMGWYRQAPGKEREFVAAISWSGDTTYYADSVKGRFTISRDNAKNTVYLQMNSLKPEDTAVYYCAAESYIWFWRPYYYWGQGTQVTVSS | low polyreactivity |
| QVQIVESGGGLVQAGGSLRLSCAASGRIFAYNAMGWYRQAPGKERELVVAISWTGGRTSYADSVKGRFTISCDNAKNTVYLQMNSLKPEDTAVYYCNARYRYRLRGYDYWGQGTQVTVSS | high polyreactivity |
| QVQLVESGGGLVQAGGSLRLSCAASGSIFRYYAMGWYRQAPGKERELVAVISSGGTRTNYADSVKGRFTISRDTAKNTVYLQMNSLKPEDTAVYYCAAGYLSLYGGGYWGQGTQVTVSS | high polyreactivity |
| QVQLVESGGGLVHAGGRLRLRCAASGSIFGYYAMAWYRHAPGKETELVAAISRRGGRTYYADSVKGRFTISRDNAKNTVYLQMNSLKPEDTAVYYCAKDRYYSELQYPYYRGDYWGQGTQVTVSS | high polyreactivity |
| QVQLVESGGGLVQAGGSLRLSCAASGRTFTRNAMGWYRQAPGKERELVAAISYSGGSTYYADSVKGRFTISRDNAKNTVYLQMNSLKPEDTAVYYCNAATSRRSIRYDYWGQGTQVTVSS | high polyreactivity |
| QVQLVESGGGLVQAGGILRLSCAASGFTFSSNAMGWYRPAPGKERELVAAISKGGGSTYYADSVKGRFTISRDNAKNSVYLQMNSLKPEDTAVYYCATRRRGGLTFDSWGQGTQVTVSS | high polyreactivity |

| Sequence | polyreactivity (PSR sort gate) |
| --- | --- |
| QVQLVESGGVLVQAGGSLRLSCAASGSTFSWYAMGWYRQAPGKERELFAGITRSDGSTYYADSVKGRFTNSRDNAKNNVYLQMNSLKPEDTAVYYCAADDYIIRYGTNVDYWGQGTQVTVSS | low polyreactivity |
| QVQLVESGGGLVQAGGSLRLSCAASGSIFATYAMGWYIQAPGKERELVASITTDGSTHYADSVKGRFTISRDNAKNTVYLQMNSLKPEDTAVYYCNTETGPSPVPVYDTEFDSWGQGTQVTVSS | low polyreactivity |
| QVQHVESGGGLFQAGGSLRLSCAASGRIFSYYAMGWYRQAPGKERELVAAINWNGGRTYYADSVKGRFTISRDNAKNSVYLQMNSLKPEDTAVYYCNARYSGKYDYWRQGTQVTVSS | high polyreactivity |
| QVQLVESGGGLVQAGGSLRLSCAASGRIFANNAMGWYRQAPGKERELVAAISWRSGGTYYADSVKGRFTISRDNAKNTVYLQMNSLKPEDTAVYYCARRSPHHGRDYWGQGTQVTVSS | low polyreactivity |
| QVQLVESGGGLVQAGGTLRLSCAASGLIFDANAMGWYRQAPGTERELVAAITGSGGRTYYADSVKGRFTISRDIAKHTVYLQMNSLKPEDTAVYYCAASSKRKYLYNYWGQGTQVTVSS | high polyreactivity |
| QVQLVESGGGLVQAGGSLRLSCAASGSIFWGYAMGWYRQAPGKERELVASSTNYADSVKGRFTISRDNAKNTVYLQMNSLKPEDTAVYYCAREQGVNRNHDYWGQGTQVTVSS | low polyreactivity |
| QVQLVESGGGLVQAGGSLRLSSAASGSIFNYNAMGWYRQAPGKERELVAAISSSGSTNYADSVKGRFTISRDNAKNTVYLQMNSLKPEDTAVYYCAADYGSYGVVRAVSIEYEYWGQGTQVTVSS | low polyreactivity |
| QVQLVESGGGLVQAGGSLRLICAASGNTFVDYAMGWYRQAPGKELELVAAISRSGGSTYADSVKGRFTISRDNAKNTVYLQMNSLKPEDTAVYYCAAYSGVGYLWFDYWGQGTQVTVSS | low polyreactivity |
| QVQLVESGGGLVQAGGSLRLSCAASGFIFYTYAMGWSRLAPGKEREFVASISKSGGRTYYADSVKRRFTMSRDNAKNTVYLQMISLKPEVTAVYYCNAYRSTHFFSYRDDYWGQGTQVTVSS | high polyreactivity |
| QVQLVESGGGLVQAGGSLRLSCAASGGIFSTYTMGWSRQAPGKERELVAAITTGNSTYYADSVKGRFTISRDNAKNTVYLQMNSLKPEDTAVYYCAAFAASRDYYRRLIHDGYDYWGQGTQVTVSS | low polyreactivity |
| QGQLVESGGGLVQAGGSLRLSCAASGRNFRINDMGWYRQAPGKERELVAAITWSGGSTYYADSVKGRCPISRDNAKNTVYLQMHSLKPEDTAVYYCAADQAYFWGYYYWGQGTQVTVSS | low polyreactivity |
| QVQLVESGGGLVQAGGSLRLSCAASGLTYSNAMGWYRQAPVKERELVAAISWRGGRTYYADSVKGRFTISRDNAKNTVYLQMNSLKPEDTAVYYCAKYAHGHKWYGYWGQGTQVTVSS | low polyreactivity |
| QVQLVESGGGLVQAGGSLRLSCAATGSTFGAYAMGWYRQAPGKERELVAAITRRSGSTYYADSVKGRFTISRDNAKNTVYLQMNSLKPEDTAVYYCAARASTIMGSWGQGTQVTVSS | high polyreactivity |
| QVQLVESGGGLVQAGGSLRLSCAASGLIFYGNAMGWYRKAPGKERELVAAISWSGGNTSYADSVKGRFTISRDNAKNTVYVLMNSLKAEDTAVDYCNADSLPSLERYGYWGQGTQVTVSS | low polyreactivity |
| QVQLVESGGRLVQAGGSLRLSCAASGRIFVVNAMGWYRQAPGKERELVAAIDRSGGSTYYADSVKGRFTISRDNAKNTVYLQMNSLKPEDTAVYYCNTGRRYYSYRRDYWGQGTQVTVSS | high polyreactivity |
| QVQLVESGGGLVQAGGSLRLSCAASGSTFAGYVMGWYRQAPGKERELVAAISRSGGSTYYADSVKGRFTISRDNAKNTVYLQMNSLKPEDTAVYYCAARNSPGFPGDYWGHGTQVTVSS | high polyreactivity |
| QVQLVESGGGLVQAGGSLRLSCAASGSTSSNNAMGWYRQAPGKERELVADISTNGDSTSYADSVKGRFTISRDNAKNTVYLQMNSLKPEDTAVYYCNKDFVYPDDDGLFDYWGQGTQVTVSS | low polyreactivity |
| LVQLQESGGGLVQAGGSLRLSCAASGTISPGGYMGWYRQAPGQERELVASINVGGSTNYADSVKGRFTISRDNAKNPVDLQMNSLKPEDNAVYYCAVWGRNRLQLSYWGQGTQVTVSS | low polyreactivity |
| QVQLVESGGGLVQAGGSLRLSCAASGSIFSVYVMGWYRQAPGKERELVAAISWSDSDTYYADSVKGRFTISRDNAKNTVYLQMNSLKPEDTAVYYCAAETFDYADYIANGSGEYDYWGQGTQGTVSS | high polyreactivity |
| HVQLVESGGGLVQAGGSLRLSCAASGRTFFRYVMGWYRQAPGKERELVAAISRSGGSTYYADSVKGRFTISRDNAKNTFYLQMNSLKPEDTAVYYCAASAGPRASYYYWGQGTQVTVSS | high polyreactivity |
| QVQLVESGGGLVQAGGSLRLSCAASGRIFALYAMGWYRQAPGKERELVAAITWRGGRTRYADSVKGRFTISRDNAKNTVYLQMNSLKPEDTAVYYCNKRLFASRYDYWGQGTQVTVSS | high polyreactivity |

From the nanobody polyreactivity screen of Harvey et al. (2022)
